In patent publication US20230295324A1 (published 2023):

T1: human OX40 on cells (CHO-K1/hu OX40) (human, UniProt P43489 29-277)
T1 sequence (looked up): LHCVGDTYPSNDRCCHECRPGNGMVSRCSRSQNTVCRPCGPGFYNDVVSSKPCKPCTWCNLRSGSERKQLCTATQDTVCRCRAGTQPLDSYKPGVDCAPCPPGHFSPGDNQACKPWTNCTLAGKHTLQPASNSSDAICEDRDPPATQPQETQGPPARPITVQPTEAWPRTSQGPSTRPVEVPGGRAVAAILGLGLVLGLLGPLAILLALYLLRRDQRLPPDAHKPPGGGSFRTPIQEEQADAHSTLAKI

T2: human OX40 protein (Acro biosystem, #OX0-H5224) (human, UniProt P43489 29-216)
T2 construct: Bought recombinant protein
T2 sequence (looked up): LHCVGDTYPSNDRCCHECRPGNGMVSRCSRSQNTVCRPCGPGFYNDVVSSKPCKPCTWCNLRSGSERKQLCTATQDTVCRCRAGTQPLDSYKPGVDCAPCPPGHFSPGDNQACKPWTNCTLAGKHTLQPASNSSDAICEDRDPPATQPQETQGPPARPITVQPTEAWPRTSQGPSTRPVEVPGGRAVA


Tests used:
[1] = target: T1, human OX40 on cells (CHO-K1/hu OX40); assay: cell-based or functional assay
[2] = target: T1, human OX40 on cells (CHO-K1/hu OX40); assay: FACS, CHO-K1/hu OX40 cells
Method: This example is intended to investigate the in vitro binding activity of anti-human OX40 HCAb monoclonal antibodies to human OX40. The antibody binding assay at the cellular level was performed using a stable CHO-K1 cell strain overexpressing human OX40 (CHO-K1/hu OX40). Briefly, the CHO-K1/hu OX40 cells were digested, resuspended in an F12K complete medium and washed once with PBS. The cell density was adjusted to 1×10⁶ cells/mL with PBS. The cells were seeded in a 96-well V-bottom plate (Corning, #3894) at 100 μL/well, and centrifuged, and then the supernatant was discarded. Then, the test antibodies diluted in a 3-fold gradient at concentrations that were 2 times the final concentrations were added at 100 μL/well. The cells were incubated at 4° C. for 1 h away from light. Thereafter, the cells in each well were rinsed twice with 100 μL of pre-cooled PBS, and centrifuged at 500 g at 4° C. for 5 min, and then the supernatant was discarded. […] The plate was incubated away from light at 4° C. for 30 min. The cells in each well were rinsed twice with 100 μL of pre-cooled PBS, and centrifuged at 500 g at 4° C. for 5 min, and then the supernatant was discarded. Finally, the cells in each well were resuspended in 200 μL of pre-cooled PBS, and the fluorescence signal values were read using a BD FACS CANTOII.

[3] = target: T3, cynomolgus monkey OX40 protein (Novoprotein, #CB17) (cynomolgus monkey); assay: ELISA, coated cyno OX40 protein
T3 construct: Bought recombinant protein; also called cyno OX40
Method: (§1) This example is intended to investigate the in vitro binding activity of the anti-OX40 HCAb monoclonal antibodies prepared in Example 1 to human and cynomolgus monkey OX40 proteins. The antibody binding assay at the protein level was performed using a human OX40 protein (Acro biosystem, #OX0-H5224) and a cynomolgus monkey OX40 protein (Novoprotein, #CB17). Briefly, a 384-well plate (PerkinElmer, #6007509) was coated with 1 μg/mL human OX40 protein and a cynomolgus monkey OX40 protein dissolved in PBS at 20 μL/well, and incubated at 4° C. overnight. The next day, the 384-well plate was washed three times with PBS containing 0.05% Tween (MEDICAGO, #09-9410-100), and blocked with PBS containing 2% milk (Bio-Rad, #170-6404) at 37° C. for 1 h. […] The plate was added with a stop buffer (BBI life sciences, #E661006-0200) at 20 μL/well, and read for OD₄₅₀₋₆₅₀ values using a plate reader (Molecular Devices, model: SpectraMax Plus). The values were analyzed with Graphad 8.0 and plotted.

[4] = target: T2, human OX40 protein (Acro biosystem, …); assay: ELISA, coated human OX40 protein
Method: as §1

[5] = target: T2, human OX40 protein (Acro biosystem, …); assay: BLI, antibody on ProA sensor, 1:1 global fit
Method: (§2) The binding kinetics between the antigen and the antibody was analyzed by the Biolayer Interferometry (BLI) technique using an Octet Red 96e molecular interaction analyzer (Fortebio).
(§3) The association and dissociation signals between the OX40 antibodies and OX40 proteins were recorded by Octet Red 96 in real time. When data analysis was performed using Octet Data Analysis software (Fortebio, version 11.0), 0 nM was used as a reference hole, and reference subtraction was performed; the “1:1 Global fitting” method was selected to fit the data, and the kinetics parameters of the binding of antigens to antigen-binding proteins were calculated, with kon(1/Ms) values, kdis(1/s) values and KD(M) values obtained.

[6] = target: T3, cynomolgus monkey OX40 protein …; assay: BLI, antibody on ProA sensor, 1:1 global fit
Method: as §2, §3

[7] = target: T1, human OX40 on cells (CHO-K1/hu OX40); assay: FACS, blocking of biotin-human OX40L on CHO-K1/hu OX40 cells
Method: Briefly, the CHO-K1/hu OX40 cells were digested and resuspended in an F-12K complete medium, and the cell density was adjusted to 1×10⁶ cells/mL. The cells were seeded in a 96-well V-bottom plate (Corning, #3894) at 100 μL/well, and centrifuged, and then the supernatant was discarded. The test antigen-binding proteins diluted in a 3-fold gradient at concentrations that were 2 times the final concentrations were added at 100 μL/well, and the mixture was well mixed, wherein the antigen-binding protein had the highest final concentration of 100 nM, and a total of 8 concentrations were obtained. […] The cells were incubated at 4° C. for 1 h away from light. Thereafter, the cells were centrifuged at 4° C. for 5 min, and then the supernatant was discarded. […] The cells in each well were rinsed twice with 100 μL of pre-cooled PBS, and centrifuged at 500 g at 4° C. for 5 min, and then the supernatant was discarded. A 1:200 fluorescent secondary antibody PE Streptavidin (BD Biosciences, #554061) was added at 100 μL/well, and the cells were incubated away from light at 4° C. for 30 min. The cells in each well were rinsed twice with 200 μL of pre-cooled PBS, and centrifuged at 500 g at 4° C. for 5 min, and then the supernatant was discarded. Finally, the cells in each well were resuspended in 200 μL of precooled PBS. Fluorescence signal values were read using BD FACS CANTOII, and IC50 was calculated. Inhibition rate %={average MFI of non-blocking control well−MFI value of OX40 antibody}/{(average MFI of non-blocking control well)−average MFI of 100% blocking control well)}×100%.

| Binder | EC50, HEK293/OX40/NF-kb luciferase reporter [1] [nM] | Maximum fluorescence signal value, HEK293/OX40/NF-kb luciferase reporter [1] [luminescence] | EC50 [2] [nM] | Maximum MFI [2] [MFI] | EC50 [3] [nM] | Maximum OD [3] [OD] | EC50 [4] [nM] | Maximum OD [4] [OD] | Kd [5] [nM] | koff [5] [s⁻¹] | kon [5] [M⁻¹ s⁻¹] | Kd [6] [nM] | koff [6] [s⁻¹] | kon [6] [M⁻¹ s⁻¹] | Maximum inhibition rate (%) [7] [%] | IC50 [7] [nM] |
| --- | --- | --- | --- | --- | --- | --- | --- | --- | --- | --- | --- | --- | --- | --- | --- | --- |
| PR002063 (antibody, human IgG1, V domains shown, no light chain; also called anti-OX40 HCAb antibody) VH: EVQLLESGGGLVQPGGSLRLSCAASGFTFSSYAMSWVRQAPGRGLEWVSAISGGGGSTFYADSVRGRFTISRDNSKNTLYLQMSSLRAEDTAVYYCANGMTGTTDVDYWGQGTRVTVSS | 8.64 | 150000 | 9 | 2240 | 0.276 | 2.32 | 0.101 | 2.28 | 13 | 0.000511 | 39200 | 53.4 | 0.00192 | 36000 | 17 | – |
| PR002071 (antibody, human IgG1, V domains shown, no light chain; also called anti-OX40 HCAb antibody) VH: EVQLVESGGGLVQPGGSLRLSCAASGFTFSSYAMSWVRQAPGKGLEWVSAISGGGGSIFYADSVRGRFTISRDNSKNTLYLQMNSLRAEDTAVYYCANGMTGTTDVDYWGQGTLVTVSS | 7.85 | 144000 | 4 | 3060 | 0.202 | 2.93 | 0.0502 | 2.45 | – | – | – | – | – | – | 50 | 51.7 |
| PR002072 (antibody, human IgG1, V domains shown, no light chain; also called anti-OX40 HCAb antibody) VH: EVQLLESGGGLVQPGGSLRLSCAASGFTFSSYAMSWVRQASGKGLEWISAISGSGGSTYYADSVRGRFTISRDNSKNTLYLQMNSLRADDTAVYYCANGMTGTTDVDFWGQGTPVTVSS | 14.2 | 99600 | 5.64 | 1400 | 0.217 | 2.97 | 0.0577 | 2.47 | – | – | – | – | – | – | 14 | – |
| Pogalizumab analog (PR003475) (antibody, human IgG1, kappa, V domains shown, Conventional IgG antibody; also called Tab) VH: EVQLVQSGAEVKKPGASVKVSCKASGYTFTDSYMSWVRQAPGQGLEWIGDMYPDNGDSSYNQKFRERVTITRDTSTSTAYLELSSLRSEDTAVYYCVLAPRWYFSVWGQGTLVTVSS VL: DIQMTQSPSSLSASVGDRVTITCRASQDISNYLNWYQQKPGKAPKLLIYYTSRLRSGVPSRFSGSGSGTDFTLTISSLQPEDFATYYCQQGHTLPPTFGQGTKVEIKR | – | – | – | – | 0.194 | 2.23 | – | – | – | – | – | 0.0894 | – | – | – | – |
| PR002058 (antibody, human IgG1, V domains shown, no light chain; also called anti-OX40 HCAb antibody) VH: EVQLLESGGGLVQPGGSLRLSCAASGFTFSSYAMSWVRQAPGKGLEWVSAISGGSGSTFYADSVRGRFTISRDNSKNTLYLQMNSLRAEDTAVYYCADGVTGTDFDFWGQGTLVTVSS | 4.29 | 136000 | 5.79 | 3560 | 0.0597 | 1.76 | 0.0629 | 1.94 | – | – | – | – | – | – | 38 | 98.1 |
| PR002073 (antibody, human IgG1, V domains shown, no light chain; also called anti-OX40 HCAb antibody) VH: EVQLVESGGGLVQPGGSLRLSCAASGFTFSSYAMSWVRQAPGKGLEWVSAISGGSGSTFYADSVRGRFTISRDNSKNTLYLQMNSLRAEDTAVYYCADGVTGTDFDFWGQGTLVTVSS | 6.39 | 121000 | 6.55 | 3260 | 0.146 | 2.55 | 0.085 | 2.38 | – | – | – | – | – | – | 24 | 75.2 |

Second part, the binder after the results:

| EC50, HEK293/OX40/NF-kb luciferase reporter [1] [nM] | Maximum fluorescence signal value, HEK293/OX40/NF-kb luciferase reporter [1] [luminescence] | EC50 [2] [nM] | Maximum MFI [2] [MFI] | EC50 [3] [nM] | Maximum OD [3] [OD] | EC50 [4] [nM] | Maximum OD [4] [OD] | Kd [5] [nM] | koff [5] [s⁻¹] | kon [5] [M⁻¹ s⁻¹] | Kd [6] [nM] | koff [6] [s⁻¹] | kon [6] [M⁻¹ s⁻¹] | Maximum inhibition rate (%) [7] [%] | IC50 [7] [nM] | Binder |
| --- | --- | --- | --- | --- | --- | --- | --- | --- | --- | --- | --- | --- | --- | --- | --- | --- |
| 8.55 | 149000 | 3.82 | 2860 | 0.103 | 1.92 | 0.0639 | 2.47 | 6.79 | 0.000337 | 49600 | 33.7 | 0.00104 | 30800 | 44 | 49.6 | PR002065 (antibody, human IgG1, V domains shown, no light chain; also called anti-OX40 HCAb antibody) VH: EVQLVESGGGLVQPGGSLRLSCAASGFTFSSYAMSWVRQAPGKGLEWVSAISGRGDITFYADSVRGRFTISRDNSKNTLYLQMNSLRAEDTALYYCANGMTGSTDVDFWGQGTLVTVSS |
| 67 | 141000 | 24.6 | 1380 | 0.116 | 2.05 | 0.065 | 2.8 | – | – | – | – | – | – | 0 | – | PR002076 (antibody, human IgG1, V domains shown, no light chain; also called anti-OX40 HCAb antibody) VH: EVQLLESGGGLVQPGGSLRLSCAASGFTFSSYAMSWVRQAPGKGLEWVSAISGSGGNTYYADSVRGRFTISRDNSKNTLYLQMNSLRAEDTAVYYCANGMTGTTDVDYWGQGTRVTVSS |
| 3.08 | 84800 | 1.27 | 3540 | 0.14 | 2.34 | 0.0512 | 2.35 | – | – | – | – | – | – | 81 | 43.1 | PR002074 (antibody, human IgG1, V domains shown, no light chain; also called anti-OX40 HCAb antibody) VH: EVQLLESGGGLVQPGGSLRLSCAASGFTFSSYAMSWVRQAPGKGLEWVSGISGGGNNTFYADSVRGRFTISRDNSKNTLYLQMNSLRAEDTAVYYCMRGWELPLLENWGQGTLVTVSS |
